The target of the test is T1, human prolactin receptor (PRLR), full length on cells (human) (UniProt P16471).
T1 sequence: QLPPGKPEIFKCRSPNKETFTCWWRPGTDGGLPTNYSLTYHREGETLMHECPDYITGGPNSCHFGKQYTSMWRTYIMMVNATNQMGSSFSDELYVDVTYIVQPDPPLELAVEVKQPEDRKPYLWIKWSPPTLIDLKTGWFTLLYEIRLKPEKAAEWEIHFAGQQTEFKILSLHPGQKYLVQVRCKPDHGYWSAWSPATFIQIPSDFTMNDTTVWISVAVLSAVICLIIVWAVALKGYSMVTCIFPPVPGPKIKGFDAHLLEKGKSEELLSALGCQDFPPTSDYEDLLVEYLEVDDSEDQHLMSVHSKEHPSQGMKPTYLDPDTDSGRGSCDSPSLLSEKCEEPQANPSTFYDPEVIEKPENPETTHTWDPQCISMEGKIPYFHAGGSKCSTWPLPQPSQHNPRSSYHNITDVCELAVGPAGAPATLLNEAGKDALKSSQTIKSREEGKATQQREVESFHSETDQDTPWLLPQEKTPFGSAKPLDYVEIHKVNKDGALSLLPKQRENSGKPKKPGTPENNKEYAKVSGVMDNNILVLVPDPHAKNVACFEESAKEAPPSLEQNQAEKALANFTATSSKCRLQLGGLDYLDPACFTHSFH
The test is described as follows: flow cytometry on CHO-K1 cells expressing human PRLR (clone 1G5). A general note: A flow cytometer gives signals particle by particle.

For “mAb 1167, control murine anti-PRLR monoclonal antibody (R&D Systems, catalog #MAB1167)”, the MFI turned out to be 33.8.

The values are drawn from patent US20080292620A1.
